From publication PMC2851570, “Distinct Roles of Hand2 in Initiating Polarity and Posterior Shh Expression during the Onset of Mouse Limb Bud Development” (PLoS Genetics, 2010)

B1: Hand2, Flag-epitope tagged (natural protein, UniProt Q61039 1-217, looked up)
chain: MSLVGGFPHHPVVHHEGYPFAAAAAAAAAAAASRCSHEENPYFHGWLIGHPEMSPPDYSMALSYSPEYASGAAGLDHSHYGGVPPGAGPPGLGGPRPVKRRGTANRKERRRTQSINSAFAELRECIPNVPADTKLSKIKTLRLATSYIAYLMDLLAKDDQNGEAEAFKAEIKKTDVKEEKRKKELNEILKSTVSSNDKKTKGRTGWPQHVWALELKQ

Experiments:
[1] = target: Hoxd13 (expressed in transfected cells) (UniProt P70217)
Chain of Hoxd13 (expressed in transfected cells) (UniProt P70217) (P70217 whole entry): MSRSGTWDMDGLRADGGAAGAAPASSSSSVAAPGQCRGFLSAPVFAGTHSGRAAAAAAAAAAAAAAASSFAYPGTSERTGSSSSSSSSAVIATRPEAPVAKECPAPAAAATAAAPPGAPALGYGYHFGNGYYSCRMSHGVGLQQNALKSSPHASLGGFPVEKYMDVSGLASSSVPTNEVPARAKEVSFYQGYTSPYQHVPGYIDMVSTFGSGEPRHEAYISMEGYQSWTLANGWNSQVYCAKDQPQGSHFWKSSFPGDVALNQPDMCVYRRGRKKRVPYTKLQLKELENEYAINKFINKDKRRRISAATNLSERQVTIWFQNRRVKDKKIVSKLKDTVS

[2] = target: Hoxd13 (expressed in transfected cells) (UniProt P70217 1-339); experiment: cell-based or functional assay
Chain of Hoxd13 (expressed in transfected cells) (UniProt P70217 1-339) (P70217 whole entry): as above

Molecule	repression by co-expressed Gli3R of Hand2-Hoxd13 mediated transactivation of the ZRS-Luc reporter in NIH3T3 cells [1] [%]	luciferase activity of the ZRS-Luc reporter in NIH3T3 cells on co-transfection of Hand2 and Hoxd13 (basal activity set to 1; Hand2 alone ∼3-fold, Hoxd13 alone ∼6.5-fold) [2] [fold]
Gli3 repressor isoform (Gli3R), Myc-epitope tagged (domain or fragment)	50	–
B1	–	~10.5
